Columns and labels:
[1] = molecular target: HMM-mfMSR1 (monkey MSR1 extracellular domain); test: Biacore surface plasmon resonance binding kinetics of anti-MSR1 mAbs, antibody-capture format; settings: analyte HMM-mfMSR1, NB = no binding observed; for kd: * = no dissociation observed, kd manually fixed at 1.00E−05; for ka: antibody-capture format
Protocol: (§1) Binding affinities and kinetic constants of human anti-MSR1 antibodies for different MSR1 reagents were determined by real-time surface plasmon resonance (Biacore 4000). All binding studies were performed in 10 mM HEPES, 150 mM NaCl, 3 mM EDTA, and 0.05% v/v Surfactant Tween-20, pH 7.4 (HBS-ET) running buffer at 25° C. and 37° C.
(§2) The association rate (ka) and dissociation rate (kd) were determined by fitting the real-time binding sensorgrams to a 1:1 binding model with mass transport limitation using Scrubber 2.0c curve-fitting software. Binding dissociation equilibrium constant (KD) and dissociative half-life (t½) were calculated from the kinetic rates as: […]

[2] = molecular target: T1, His9-hMSR1 (human MSR1 extracellular domain) (Homo sapiens, UniProt P21757); test: as above; settings: analyte His9-hMSR1, NB = no binding observed; for kd: * = no dissociation observed, kd manually fixed at 1.00E−05; for ka: antibody-capture format
T1 construct: human MSR1 extracellular domain expressed with a N-terminal nonahistidine tag; His9 (nonahistidine) (N); purchased R&D Systems 2708-MS
T1 sequence (P21757 77-451 limits assumed): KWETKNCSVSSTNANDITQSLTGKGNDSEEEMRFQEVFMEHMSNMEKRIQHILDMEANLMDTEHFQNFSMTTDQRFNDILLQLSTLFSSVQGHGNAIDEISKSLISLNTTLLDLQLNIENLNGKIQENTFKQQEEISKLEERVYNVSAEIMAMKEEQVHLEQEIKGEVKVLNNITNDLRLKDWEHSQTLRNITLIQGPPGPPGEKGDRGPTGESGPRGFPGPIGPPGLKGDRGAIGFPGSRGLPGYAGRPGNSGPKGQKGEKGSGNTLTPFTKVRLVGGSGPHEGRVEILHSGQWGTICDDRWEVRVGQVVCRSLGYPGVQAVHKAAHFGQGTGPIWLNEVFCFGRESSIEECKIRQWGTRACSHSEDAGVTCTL
Protocol: as §1, §2

[3] = molecular target: T2, MSR1-mediated Dil-AcLDL uptake in HEK293.Myc.hMSR1 cells (Homo sapiens, UniProt P21757); test: Ligand uptake assay, Dil-AcLDL; type: cell-based; settings: 10 μg/mL Dil-AcLDL; for Dil-Acetylated LDL % Inhibition: maximum inhibition
T2 construct: expressed in transfected cells; host or cells: HEK293 (lentiviral transduction, hygromycin selection)
T2 sequence (P21757 1-451): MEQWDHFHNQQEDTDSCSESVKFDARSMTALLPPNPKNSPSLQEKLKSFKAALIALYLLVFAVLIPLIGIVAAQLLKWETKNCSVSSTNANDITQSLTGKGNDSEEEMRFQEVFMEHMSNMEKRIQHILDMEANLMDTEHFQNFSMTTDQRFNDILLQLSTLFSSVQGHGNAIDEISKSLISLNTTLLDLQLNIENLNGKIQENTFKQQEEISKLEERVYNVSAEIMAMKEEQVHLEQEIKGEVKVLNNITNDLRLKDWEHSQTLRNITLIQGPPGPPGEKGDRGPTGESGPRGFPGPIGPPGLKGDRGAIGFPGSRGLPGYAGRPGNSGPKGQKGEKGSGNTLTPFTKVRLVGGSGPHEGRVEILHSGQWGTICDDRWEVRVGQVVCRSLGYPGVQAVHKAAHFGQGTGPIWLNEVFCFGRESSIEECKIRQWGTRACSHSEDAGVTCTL
Protocol: A bioassay was generated to assess the ability of the exemplary anti-MSR1 antibodies to regulate the uptake of certain MSR1 ligands.
Generation of MSR1-expressing cell lines for assay. […] The resulting cell line, referred to here as “HEK293.Myc.hMSR1”, was selected and maintained in DMEM containing 10% FIBS, NEAA, penicillin/streptomycin, L-glutamine, and 100 μg/mL hygromycin.
Ligand uptake assay. […] After 30 minutes, either oxidized or acetylated low-density lipoprotein (LDL) labeled with 1,1′dioctadecyl-3,3,3′,3′-tetramethylindocarbocyanine perchlorate (referred to as “Dil-OxLDL” or “Dil-AcLDL,” respectively) was added to the cells at a constant concentration of 10 μg/mL. […] Results were analyzed using nonlinear regression (4-parameter logistics) with the Prism 7 program to obtain EC50 and IC50 values. The percentage of inhibition was calculated with the Relative Fluorescent Unit (RFU) values by using the following equation: […]
In the equation, “RFUBaseline” is the fluorescence value from the cells treated with 10 μg/mL ligand without antibodies, “RFUInhibition” is the minimum fluorescence value with for a particular antibody with 10 μg/mL ligand, and “RFUBackground” is the fluorescence value from cells without any ligand or antibodies.

[4] = molecular target: T1, His9-hMSR1 (human MSR1 extracellular domain); test: Biacore T200 surface plasmon resonance binding kinetics of anti-MSR1 antibody-drug conjugates and parental antibodies; settings: 25° C.; for ka: Table 19, antibody-LXR ADCs and unconjugated antibodies; for kd: Table 19, * = no dissociation observed, kd manually fixed at 1.00E−05
Protocol: The MSR1 antibodies disclosed herein were conjugated to various liver X receptor (LXR) payloads or various steroid payloads. This example describes how equilibrium dissociation constant (KD) values for human MSR1 reagents binding to human anti-MSR1 antibody-drug conjugates and their corresponding unconjugated parental antibodies were determined using a real-time surface plasmon resonance-based Biacore T200 biosensor.
All binding studies were performed in 10 mM HEPES, 300 mM NaCl, 3 mM EDTA, and 0.05% v/v Surfactant Tween-20, pH 7.4 (HBS-ET) running buffer at 25° C. The Biacore CM4 sensor chip surface was first derivatized by amine coupling with the goat anti-human Fcγ specific polyclonal antibody (Jackson ImmunoResearch Laboratories, Cat #BR-1008-39) to capture anti-MSR1 monoclonal antibodies. Binding studies were performed on human MSR1 extracellular domain expressed with a N-terminal nonahistidine tag (His9-hMSR1; R&D Systems, Cat #2708-MS).
as §2
Binding kinetics parameters for His9-hMSR1 binding to different anti-MSR1 antibody-LXR ADCs and their unconjugated parental antibodies at 25° C. are shown in Table 19. “LP1” represents a linker-payload for which the payload structure is provided in Example 11.
The binding studies were repeated with anti-MSR1 antibody H1H21234-N297Q and steroid linker payloads (LPs). “LP3” represents a linker-payload for which the structure is provided in Example 23, and “LP13” represents a linker-payload for which the structure is provided in Example 24.

Chain of HMM-mfMSR1 (monkey MSR1 extracellular domain) (as listed by the source): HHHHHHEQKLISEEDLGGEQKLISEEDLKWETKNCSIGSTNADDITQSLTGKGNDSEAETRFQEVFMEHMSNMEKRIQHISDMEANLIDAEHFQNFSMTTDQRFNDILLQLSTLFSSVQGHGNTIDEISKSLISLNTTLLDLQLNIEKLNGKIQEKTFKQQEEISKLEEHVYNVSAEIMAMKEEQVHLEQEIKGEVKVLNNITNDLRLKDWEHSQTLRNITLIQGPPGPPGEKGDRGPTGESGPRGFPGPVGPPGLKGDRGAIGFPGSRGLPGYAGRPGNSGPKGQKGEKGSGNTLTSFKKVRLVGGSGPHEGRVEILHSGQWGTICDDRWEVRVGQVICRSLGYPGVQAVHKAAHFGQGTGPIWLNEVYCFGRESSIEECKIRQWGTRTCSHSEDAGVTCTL

B1: H1H27739P-N297Q: anti-MSR1 antibody "made with an N297Q single point mutation in human Fcγ portion" (antibody, V domains shown)
VH: EVQLVESGGGLVQPGGSLRLSCTASGFTFSSYAMSWVRQAPGKGLEWVSAISGTGSSTYFTDSVKGRFAISRDNSKNTLYLQMNSLRAEDTAVYYCAKDGEWLSTVTLFDYWGQGTLVTVSS
VL: EIVMTQSPATLSVSPGERATLSCRASQSVSSNLAWYQQKPGQAPRLLIYGASTRATGIPARFSGSGSGTDFTLTISSLQSEDFALYYCQQYFIWPPHPTFGPGTKVDIKR
[1]; 25° C.
  kd: 0.000144 s⁻¹
  ka: 352000 M⁻¹ s⁻¹
[1]; 37° C.
  kd: 0.000842 s⁻¹
  ka: 2.25e+06 M⁻¹ s⁻¹
[2]; 25° C.
  kd: 0.00103 s⁻¹
  ka: 375000 M⁻¹ s⁻¹
[2]; 37° C.
  kd: 0.00288 s⁻¹
  ka: 776000 M⁻¹ s⁻¹
[3]
  Dil-Acetylated LDL IC50: no inhibition
  maximum inhibition of Dil-AcLDL uptake: no inhibition
  Dil-Acetylated LDL % Inhibition: no inhibition
[4]
  ka: 119000 M⁻¹ s⁻¹
  kd: 0.000555 s⁻¹

B2: H1H27734P-N297Q: one of "Twelve anti-MSR1 antibodies"; "made with an N297Q single point mutation in human Fcγ portion" (antibody, V domains shown)
VH: EVQLVESRGGLVQPGGSLRLSCAASGFTFSSYAMSWVRQAPGKGLEWVSAISGSGGSTFYADSVKGRFTISRDNSKNTVYLQMNSLRAEDTAVYYCAKALVLRFLEWLGDYWGQGTLVTVSS
VL: DIQMTQSPSTLSASVGDRVTITCRASQSISSWLAWFQQKPGKAPKLLIYKASSLESGVPSRFSGSGSGTEFTLTISSLQPDDFATYYCQQYKSYWTFGQGTKVEIKR
[1]; 25° C.
  kd: 0.00291 s⁻¹
  ka: 423000 M⁻¹ s⁻¹
[1]; 37° C.
  kd: 0.0032 s⁻¹
  ka: 949000 M⁻¹ s⁻¹
[2]; 25° C.
  kd: 0.00111 s⁻¹
  ka: 420000 M⁻¹ s⁻¹
[2]; 37° C.
  kd: 0.0019 s⁻¹
  ka: 1.09e+06 M⁻¹ s⁻¹
[3]
  Dil-Acetylated LDL IC50: no inhibition
  maximum inhibition of Dil-AcLDL uptake: no inhibition
  Dil-Acetylated LDL % Inhibition: no inhibition
[4]
  ka: 77200 M⁻¹ s⁻¹
  kd: 0.000596 s⁻¹
